Reference: PMC10896785

Target: heat shock protein 90 (Hsp90), endogenous mouse, P07901
Test: in situ proximity-ligation assay (PLA)
Settings: chain shown with the change; primary mouse embryonic fibroblasts (MEFs); anti-FKBP51 and anti-Hsp90 antibodies; parent: est. 240; read off a plot

response (PLA dots/Nuclei): 73
B1: FK506-binding protein 51 kDa (FKBP51), wild-type mouse, Q64378 K352A; R356A (protein)
chain: MTTDEGTSNNGENPAATMTEQGEDITTKKDRGVLKIVKRVGTSDEAPMFGDKVYVHYKGMLSDGKKFDSSHDRKKPFAFSLGQGQVIKAWDIGVSTMKKGEICHLLCKPEYAYGSAGHLQKIPSNATLFFEIELLDFKGEDLFEDSGVIRRIKRKGEGYSNPNEGATVKVHLEGCCGGRTFDCRDVVFVVGEGEDHDIPIGIDKALVKMQREEQCILYLGPRYGFGEAGKPKFGIDPNAELMYEVTLKSFEKAKESWEMDTKEKLTQAAIVKEKGTVYFKGGKYTQAVIQYRKIVSWLEMEYGLSEKESKASESFLLAAFLNLAMCYLKLREYNKAVECCDKALGLDSANEAGLYARGEAQLLMNDFESAKGDFEKVLAVNPQNRAARLQISMCQRKAKEHNERDRRVYANMFKKFAERDAKEEASKAGSKKAVEGAAGKQHESQAMEEGKAKGHV
